{"source": "patent US20060040319A1", "about": "(published 2006)", "binders": {"B1": {"name": "PPPALPPKRRR-NH2, high affinity ligand for the N-SH3 domain of Crk (peptide)", "peptide": "PPPALPPKRRR-NH2"}}, "target": "Rh-(Crk-II)-Fl (mouse, UniProt Q64010 2-304, N-alpha-tetramethylrhodamine (Rh) on the N-terminal KRG peptide); Dapa(Fl) = diaminopropionic acid-fluorescein in the C-terminal peptide; K-epsilon-(Biotin) and C-terminal amide (present in the …)", "sequence (Q64010 other isoform, or with tags, fused parts or gaps limits assumed)": "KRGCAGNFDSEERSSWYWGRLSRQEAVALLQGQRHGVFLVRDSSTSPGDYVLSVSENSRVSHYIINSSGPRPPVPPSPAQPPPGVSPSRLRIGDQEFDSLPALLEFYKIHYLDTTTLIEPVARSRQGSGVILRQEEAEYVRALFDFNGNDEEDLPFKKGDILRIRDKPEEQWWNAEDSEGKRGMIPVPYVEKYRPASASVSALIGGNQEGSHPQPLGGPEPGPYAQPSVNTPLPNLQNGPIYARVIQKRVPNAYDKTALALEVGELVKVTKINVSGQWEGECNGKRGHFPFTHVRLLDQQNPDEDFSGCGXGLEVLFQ", "test": "cell-based or functional assay", "note": "Where no end group is shown, it is not given here.", "data": [{"binder": "B1", "values": [{"measurement": "reduction in the change in FRET after 60 minutes reaction with full length c-Abl, relative to the positive control", "result": 50, "unit": "%"}]}]}
